The values below come from patent publication US20140336119A1 (INSTITUT PASTEUR, published 2014).

Assay [1] addresses T1, Muc2 (human, glycosylated, secreted in colonic mucus) (human, UniProt Q02817 21-5289, limits assumed, native glycosylation, with sulfated oligosaccharides).
T1 construct: Native secreted mucin in mucus extracts or tissue, not a purified recombinant protein; also called glycoprotein Muc2
Description: fluorescent staining of fixed human colonic mucus; MUB40 probes said to display the same properties as the MUB70 probe. Here is the method:
FIG. 22. Schematic description of the Cy5-MUB40-1, Cy5-MUB40-2, Cy5-MUB40-3, Cy5-MUB40-4 peptides (SEQ ID NOS 62 to 65). Fluorescent staining of human colonic mucus was performed by the addition of 1 μg/mL of the corresponding Cy5-conjugated peptides with Phalloidin-RRX (1:100) on formol fixed, paraffin embedded samples. Image acquisition was performed using a fluorescent confocal microscope (see Methods).
FIG. 23 Comparative staining analysis of human colonic goblet cells using Cy5-MUB70 and Cy5-MUB40-1. Fluorescent staining of human colonic mucus was performed by the addition of 1 μg/mL of the corresponding Cy5-conjugated peptides with Phalloidin-RRX (1:100) on formol fixed, paraffin embedded samples. Image acquisition was performed using a fluorescent confocal microscope (see Methods).

The target in assay [2] is Muc5ac (human, in colonic mucus extract) (human, UniProt P98088 28-5654, limits assumed). Description: pulldown on avidin-agarose beads, dot blot immunodetection. On the procedure: (§1) Pulldown assays were performed in the presence of 600 μg biot-MUB₇₀ bound to 500 μL Avidin-agarose beads (Thermo Scientific) in a Phosphate Buffer pH=8 buffer for 1 h at 4° C. After 3 washes, 10 mg soluble human colonic mucus extract were incubated with the loaded beads for 2 h at 4° C. After 3 washes, beads were boiled in the presence of 1× Laemli buffer. As a negative control, Avidin-agarose beads were loaded with 15 μg biotin (Sigma-Aldrich) and processed using the same procedure. Experiments were performed on two independent occasions.
(§2) In order to identify a MUB₇₀ ligand present in the soluble extracts of human colonic mucus, biot-MUB₇₀, a biotinylated form of MUB₇₀, was synthesized (see Methods) in order to perform pulldown assays. Biot-MUB₇₀ was incubated with avidin beads and further with human colonic mucus extracts (produced in vitro from differentiated HT-29 MTX cells, see Methods). Biotin only was used as a negative control. […] A dot blot assay was then performed, focusing on secreted mucins, which are the major components of colonic mucus. Muc2 was immunodectected in the eluted fraction, and not in the negative control, and Muc5ac, Muc5b or Muc6, all detected in the input were absent from the eluted fraction (FIG. 4A). […] Processing a chemical deglycosylation step on the soluble mucus extract (see Methods) prior to pulldown assay abolished the interaction between Muc2 and biot-MUB₇₀ (FIG. 4A). […] [12].

The target of assay [3] is Muc5b (human, in colonic mucus extract) (human, UniProt Q9HC84 26-5762, limits assumed). The assay is described as above. On the procedure:
as §1, §2

Assay [4] deals with Muc6 (human, in colonic mucus extract) (human, UniProt Q6W4X9 23-2439, limits assumed). The description is as above. Here is the method: as §1, §2
Assay [5] deals with T2, Muc2 of mouse colonic mucus (mouse, UniProt Q80Z19 21-4576, limits assumed).
T2 construct: The experiment stained colonic mucus; also called murine Muc2
Description: fluorescent staining of PFA-fixed mouse colon, confocal microscopy. On the procedure: FIG. 11. Mucus staining using Cy5-MUB₇₀ on fixed tissues. (A) Guinea pig colon, (B) rabbit ileum and (C) mouse colon were fixed in PFA 4%. Immunofluorescent staining was performed using Cy5-MUB₇₀ (1 μg/mL) (blue). Actin is stained in red (Phall.-RRX), Muc2 is stained in green (α-Muc2). Observations were performed using a confocal microscope. Bar is 50 μm.

For assay [6], the target named is T1, Muc2 (human, glycosylated, secreted in …). Description: staining of PFA-fixed; FIG. 31 is titled 'Identification of Muc2 in neutrophile granules'. On the procedure: FIG. 31. Identification of Muc2 in neutrophile granules. Human neutrophil (PMN) granule staining using Cy5-MUB40-1, Cy5-MUB40-2, Cy5-MUB40-3, Cy5-MUB40-4 peptides. Schematic description of the Cy5-conjugated peptides. PMN were purified from healthy donor blood samples and fixed in the presence of 4% PFA. Fluorescent staining of human colonic mucus was performed by the addition of 1 μg/mL of the Cy5-conjugated peptides (Green) with Dapi (1:100) (Blue) and Phalloidin-RRX (1:1000) (Red). Image acquisition was performed using a fluorescent confocal microscope (see Methods).

Chain of Muc6 (human, in colonic mucus extract) (Q6W4X9 23-2439 limits assumed): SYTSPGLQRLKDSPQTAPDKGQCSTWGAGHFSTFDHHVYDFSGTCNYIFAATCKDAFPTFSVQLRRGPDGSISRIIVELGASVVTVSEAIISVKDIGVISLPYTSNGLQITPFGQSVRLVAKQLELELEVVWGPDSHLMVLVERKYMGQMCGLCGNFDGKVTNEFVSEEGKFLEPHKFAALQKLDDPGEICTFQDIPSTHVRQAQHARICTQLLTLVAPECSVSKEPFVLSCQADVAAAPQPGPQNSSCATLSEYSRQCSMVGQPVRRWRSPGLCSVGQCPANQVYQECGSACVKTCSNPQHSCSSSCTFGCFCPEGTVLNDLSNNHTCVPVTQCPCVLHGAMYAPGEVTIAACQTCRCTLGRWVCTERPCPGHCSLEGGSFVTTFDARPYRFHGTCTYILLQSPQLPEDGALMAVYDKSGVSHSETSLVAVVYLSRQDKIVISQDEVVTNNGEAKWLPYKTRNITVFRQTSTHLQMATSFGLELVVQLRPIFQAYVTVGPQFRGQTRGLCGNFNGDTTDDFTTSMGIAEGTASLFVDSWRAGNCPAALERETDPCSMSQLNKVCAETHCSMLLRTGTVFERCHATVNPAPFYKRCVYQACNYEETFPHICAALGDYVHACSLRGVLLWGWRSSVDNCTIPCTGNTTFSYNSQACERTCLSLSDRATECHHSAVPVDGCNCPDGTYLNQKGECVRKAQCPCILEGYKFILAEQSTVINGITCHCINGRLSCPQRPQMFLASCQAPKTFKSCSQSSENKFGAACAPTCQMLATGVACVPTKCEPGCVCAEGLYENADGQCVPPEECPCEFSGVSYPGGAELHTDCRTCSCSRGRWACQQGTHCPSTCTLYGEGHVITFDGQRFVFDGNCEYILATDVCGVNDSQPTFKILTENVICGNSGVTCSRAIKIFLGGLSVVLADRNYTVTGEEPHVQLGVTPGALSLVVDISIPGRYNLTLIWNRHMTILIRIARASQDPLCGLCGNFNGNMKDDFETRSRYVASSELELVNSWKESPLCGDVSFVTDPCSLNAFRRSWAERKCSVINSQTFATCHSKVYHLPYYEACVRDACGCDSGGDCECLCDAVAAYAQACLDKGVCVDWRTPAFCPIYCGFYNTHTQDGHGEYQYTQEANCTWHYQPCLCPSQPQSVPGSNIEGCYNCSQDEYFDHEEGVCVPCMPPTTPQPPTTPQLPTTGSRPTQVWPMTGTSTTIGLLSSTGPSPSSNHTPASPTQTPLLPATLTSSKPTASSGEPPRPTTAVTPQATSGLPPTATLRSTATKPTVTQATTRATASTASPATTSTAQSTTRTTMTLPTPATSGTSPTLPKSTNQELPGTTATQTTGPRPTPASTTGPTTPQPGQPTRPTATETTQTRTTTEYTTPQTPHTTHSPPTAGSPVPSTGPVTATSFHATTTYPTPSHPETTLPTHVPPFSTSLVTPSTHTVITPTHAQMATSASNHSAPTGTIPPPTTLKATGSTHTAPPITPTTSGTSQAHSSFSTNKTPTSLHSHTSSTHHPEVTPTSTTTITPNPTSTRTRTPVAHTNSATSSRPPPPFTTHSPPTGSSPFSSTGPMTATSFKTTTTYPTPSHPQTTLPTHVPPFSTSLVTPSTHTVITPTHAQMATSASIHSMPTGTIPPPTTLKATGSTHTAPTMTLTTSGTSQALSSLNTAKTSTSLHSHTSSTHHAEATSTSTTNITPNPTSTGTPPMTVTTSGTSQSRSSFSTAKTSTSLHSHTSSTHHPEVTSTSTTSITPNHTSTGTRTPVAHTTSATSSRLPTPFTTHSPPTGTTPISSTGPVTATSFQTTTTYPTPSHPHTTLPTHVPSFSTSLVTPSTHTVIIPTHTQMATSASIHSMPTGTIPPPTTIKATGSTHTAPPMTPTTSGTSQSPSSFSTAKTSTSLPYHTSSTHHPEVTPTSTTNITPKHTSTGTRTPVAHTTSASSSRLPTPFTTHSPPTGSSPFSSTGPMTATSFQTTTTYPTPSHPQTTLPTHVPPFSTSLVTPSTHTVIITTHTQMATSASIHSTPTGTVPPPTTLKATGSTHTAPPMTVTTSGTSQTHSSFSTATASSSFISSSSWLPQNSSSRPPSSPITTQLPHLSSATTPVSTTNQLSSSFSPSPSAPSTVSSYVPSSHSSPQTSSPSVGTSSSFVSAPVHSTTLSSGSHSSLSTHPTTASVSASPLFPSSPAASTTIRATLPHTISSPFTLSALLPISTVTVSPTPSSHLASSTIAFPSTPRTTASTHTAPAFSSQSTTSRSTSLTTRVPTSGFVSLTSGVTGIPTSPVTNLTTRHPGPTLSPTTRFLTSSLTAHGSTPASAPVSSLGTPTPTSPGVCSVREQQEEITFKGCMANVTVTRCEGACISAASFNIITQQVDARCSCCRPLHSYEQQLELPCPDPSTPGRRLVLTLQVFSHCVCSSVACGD

B1: Cy5-MUB40-1 (peptide)
peptide: Ac-C(Cy5 maleimide)TAEGIKKFEGDGYELFKDNFPAGEKFDNDDTNDQFYTVIF-NH2
notes: also called MUB40-Cy5#1; Cy5-labeled MUB40-1
As for B1, the binding result in assay [1] is reported as “binds”.

B2: biot-MUB70 (biotinylated MUB70) (peptide)
peptide: CVHVQYIDGETDQMLRQDDLDGYTDETIPYSTAEGIKKFEGDGYELFKDNFPAGEKFDNDDTNDQFYTVIF
modifications: maleimide-PEG2-biotin on the added N-terminal Cys
notes: Chemically synthesized; also called biotinylated derivative of MUB70
Consider B2, for which the binding result in assay [2], in assay [3] and in assay [4] was “no binding” each time.

B3: Cy5-MUB70 (peptide)
peptide: B2 peptide
modifications: Cy5 mono maleimide on the added N-terminal Cys
notes: Chemically synthesized; also called MUB70-Cy5; Cy5-labeled MUB
B3: in assay [5], the binding result is recorded as “no binding (tested: 1 µg/mL)”.

B4: Cy5-MUB40-3 (peptide)
peptide: Ac-C(Cy5 maleimide)DQMLRQDDLDGYTDETIPYSTAEGIKKFEGDGYELFKDNF-NH2
notes: also called MUB40-Cy5#3; Cy5-labeled MUB40-3
For B4, the binding result in assay [6] was “binds”.

B5: Cy5-MUB40-2 (peptide)
peptide: Ac-C(Cy5 maleimide)GYTDETIPYSTAEGIKKFEGDGYELFKDNFPAGEKFDNDD-NH2
notes: also called MUB40-Cy5#2; Cy5-labeled MUB40-2
As for B5, the binding result in assay [6] is “binds”.

B6: Cy5-MUB40-4 (peptide)
peptide: Ac-C(Cy5 maleimide)VHVQYIDGETDQMLRQDDLDGYTDETIPYSTAEGIKKFEG-NH2
notes: also called MUB40-Cy5#4; Cy5-labeled MUB40-4
For B6, the binding result in assay [6] is given as “binds”.
